Assay: label from the status in PepcDB records

Row | Sequence | protein production
1 | MTYRAEVDGLRAIAVTLVILFHSGVEQFAGGFIGVDVFFVISGYLITTIVINDLENQKFSLGDFYERRIRRILPLLLVVIAVSYLMSWWLFLPQAHKDVGQLAVSSILSSSNILLYLKGHNYFGLEDQANPLFHTWSLGVEEQYYIVIPLLLMLLARGKNAFYLTFFIAVFALSLMAIVYTSNDPDFAFYMIFSRAWELATGSLLALVMRKAQVQSNDTLATIGIVLILASALLFEKSQDGAGITLLVPVIGSALVILFASKDNVCGKLLSLKWVVFVGLISYSLYLWHIPLFVFYRYMLDATQDVNISLYIAALFVLSYFTWRFVEKPFRSRKAMSMRTVSAVVVLLTLPLLTFGVIGHQNGGFPERSAFFEAMRINNGYGLDCNGNTDVNDVCSSAPQPTIAVLGNSHSMVYVKRLSEVTPTGVVQLTQDSCAVGYVDILEAAGSISCRQFFKQAVDTILRTPSIRRVVISSNFNKELSQADYEASLTGLLNELEGKEVVVFGPTPSAPFAVGECLWKARLFGEQEESVCDFSPKRHHPQNVAKLVNYFDRFEHVEFVDLTDAICRNGVCRMKVGANNAMYTDDSHLSYKGAELVLGHYHNSTNETQQFTYDRQ | failed
2 | MATLEITDIALVQPSHQPLSNDQTLSLSHLDNDNNLHVSFRYLRVYSSSSSTVAGESPSAVVSASLATALVHYYPLAGSLRRSASDNRFELLCSAGQSVPLVNATVNCTLESVGYLDGPDPGFVERLVPDPTREEGMVNPCILQVTMFQCGGWVLGASIHHAICDGLGASLFFNAMAELARGATKISIEPVWDRERLLGPREKPWVGAPVRDFLSLDKDFDPYGQAIGDVKRDCFFVTDDSLDQLKAQLLEKSGLNFTTFEALGAYIWRAKVRAAKTEEKENVKFVYSINIRRLMNPPLPKGYWGNGCVPMYAQIKAGELIEQPIWKTAELIKQSKSNTSDEYVRSFIDFQELHHKDGINAGTGVTGFTDWRYLGHSTIDFGWGGPVTVLPLSNKLLGSMEPCFFLPYSTDAAAGSKKDSGFKVLVNLRESAMPEFKEAMDKFHKGEFALS | failed
3 | MLRSVYEMTKISKIIDELNNQQADAAWITTPLNVYYFTGYRSEPHERLFALLIKKDGKQVLFCPKMEVEEVKASPFTGEIVGYLDTENPFSLYPQTINKLLIESEHLTVARQKQLISGFNVNSFGDVDLTIKQLR | not failed
4 | MGQFSLDSISSEISERKSFIGRINDEKLSSFDDVVKQRETKSWRAWRRSKRRRFTRKRHGLLASATAEGSESTVHARLNEEDLTAEIVFEECHVSGGELNDVVRLENEMLDRFYGAGFWRSPSQKDTSSGSL | failed
5 | MTSPLRPEDPTRVGDYDLVARIGKGGQGVVYLGKAPDGTRVAVKVMETSWASNSRARSRFAKEIEAASKVAPFCTAALLDSDINADPPYIVSEYIEGPSLRDAVLRDGPRTGAALDRLAISTATALVAIHQAGVIHRDFKPANVLLGPDGPRVIDFGIARHSEATVTATDSIVGTPAYMAPEQVEGRELTPAVDIFAWAGVMVFAATGQSPFHDETLPAIINRVLHQPPRLDGVDERLRPLLEACLAKEPERRPTAVQVLGVLVGHDPATLPQVPVEEVLENGYTAALNEQTQIAATAALPIPIGDQAPEPAPTAVMPAAEDTPAPESRTPVSGLAALAANRPADEAPASSPPSGPLRTTSGLAALVNTGENKQPTASSPGEGPPRRSAGPGHQPLPPRSTRERKTVLSWLVAAGILIIVLAGGWFLIDTFLLSPNGQSPEATPVDGTRRDTPAQDGIDDSVPSPSAIDPDTPTSSDTGYPGGELYPSLPYDDMSQTDPMEEPHLNPTIPGEGPWHSPPAGEEAPGQPHGGGAEEGGSEGGEQPGTGGPGGSGEGGAGVGRVAVSPAAP | failed
6 | MSLDKVLVGYWHNWKSTGKDGYKGGSSADFNLSSTQEGYNVINVSFMKTPEGQTLPTFKPYNKTDTEFRAEISKLNAEGKSVLIALGGADAHIELKKSQESDFVNEIIRLVDTYGFDGLDIDLEQAAIEAADNQTVIPSALKKVKDHYRKDGKNFMITMAPEFPYLTSSGKYAPYINNLDSYYDFINPQYYNQGGDGFWDSDLNMWISQSNDEKKEDFLYGLTQRLVTGTDGFIKIPASKFVIGLPSNNDAAATGYVKDPNAVKNALNRLKASGNEIKGLMTWSVNWDAGTNSNGEKYNNTFVNTYAPMLFNNEGHHHHHH | not failed
7 | MTDKKDFAASEHNNNDNIHAEVVPRQGISIIWFVPFIALIFGLWLTAKVVSEQGTFITIEFDNGSGIIPNKTEIRYKGLVTGLVKKVVPSADLQRVIAEVEISKNFTDYLTENTRFWLVSADISLQGVSGLDTLISGSYITIMPDTNQEADSQDHFVALTEAPTLDMSTPGLHLTLHTDVLGSISENSPISFKQIPIGHVTGYHYKESSKKIGINIYIKPEFAHLVKENSLFYNTSGVQVTASLTGGVKVNTESLASIMAGGISVDNLSYQTELAPAKNGQTFPLHADFQSAEMGHEVELTLEWNSGIDHNAAILFQGLTIGVIESFSKIDPVSRKITATAKVNPRVVPYLTDQSQFYIVAPQISLAGLTNAKTLLTGNYLSIRPSLAGNPSNKFNVFSSKPPYKYTEPGLHLMLTSSDRSSLQIGSNVYYKQQVVGNIQAIETTAPERHLIHIHVQPKFSHYVNHSSRFYNNSGVKISANLLGVDIQAQSLQSILTGGIAFTSQNSTQESQKKLVKNGDSFSLYANNKLAEQNISFTLNYMASEHISSDTRLLYRGIEIGAIHQTKIQGNKQQLQLGLLPEYEHILKADTQFYIVKPNLSLSGASDTDALFGGTYITFNLGQGKAKNQFTLFSQPPVKLASSPGLQLSLSTDHANVATPGSAISYRGITIGQVDNVSLNKIDDEIKVNITIDEEHRGLLKSTSRFYNAGGMTISGGLSDFVVKTESIDAILRGGISFYNPEVLLPTSLITNTQVEELSNFTLFKHEEHAKDAGQTISIHFNDISGLKVNTKVIYQEQTLGTIERLIFTADKVGVTALVLLNDSGSQFARKGTKFWKIEPQIGLVGSKNVAALLDGAFIGLLPSHNVEAKLKNEFEALELAPTVEQLSYGLNIKLTTARLGSVRVGNPVLYRQIKVGKVIGIDLSATADQVNIFINIAKRYAPLVNGNSQFWNTSGINIEASIFSGINIDSESIETLIAGGIAFATPDIDENNDKEQNDETKSLPASFILHQDVDEDWLEWQPKIAINNQTTSAE | failed
8 | MNKRVVKVEYIFMAFALFFGVLFAVINAPFQDPDEPIHFYRAYQISTGQMFEQKNNSGIGGYLPQNLIKTSENLSEDIKAKSNKKQDINKIKYYLNLPLNKNKVAFNDFRSATIYSDIVYIPQSIGINLAKIFRASALYMMYFGRIANLICWTIIVFFSVKLIPFKKNLMAFLALTPMNLYQAASLSADAMTNSMAFLSIALVLRYAFGEEEAKLTKRQIVTMIIAFTLLAFSKRIYFVMCILFFIIPIKKFNSKKDYIGTFVIMLGACLMSLVTVSVISKILAIKVSAGSYTPGQMEFVLSHPITYIHILLRTFHFKMSFYAISFIGVFGWLDTRLPLNLYLFYGVALVLIALFEHTLIEKNKDRIIMFIVFIINVGLIMSALYVSWTPKAANIIEGIQGRYFIPIIPLLGCFIGVKANKSRNVYSKVVLAISTFTILTYSVLQLLLRFYGIRIL | failed
9 | MLLRKGTVYVLVIRADLVNAMVAHARRDHPDEACGVLAGPEGSDRPERHIPMTNAERSPTFYRLDSGEQLKVWRAMEDADEVPVVIYHSHTATEAYPSRTDVKLATEPDAHYVLVSTRDPHRHELRSYRIVDGAVTEEPVNVVEQYLEHHHHHH | failed
10 | MKRSSPVILVSEDEYGKFDESTNSILVKGKMHHLGISRVIEPGDELIVSGKSFIVSDFSPMYFGRVIRRNTQIISEIDASYIIMRCGLRPGMDILEVGVGSGNMSSYILYALNGKGTLTVVERDEDNLKKAMDNLSEFYDIGNVRTSRSDIADFISDQMYDAVIADIPDPWNHVQKIASMMKPGSVATFYLPNFDQSEKTVLSLSASGMHHLETVELMKRRILVREGATRPASDDLTHTAFITFAIKKSGMVYRI | not failed
11 | MGGSLRVAVLGAPGVGKTAIIRQFLFGDYPERHRPTDGPRLYRPAVLLDGAVYDLSIRDGDVAGPGSSPGGPEEWPDAKDWSLQDTDAFVLVYDICSPDSFDYVKALRQRIAETR | failed
12 | MSLLLCDIGNSNANFLDDNKYFTLNIDQFLEFKNEQKIFYINVNEHLKEHLKNQKNFINLEPYFLFDTIYQGLGIDRIAACYTIEDGVVVDAGSAITIDIISNSIHLGGFILPGIANYKKIYSHISPRLKSEFNTQVSLDAFPQKTMDALSYGVFKGIYLLIKDAAQNKKLYFTGGDGQFLANYFDHAIYDKLLIFRGMKKIIKENPNLLYEGHHHHHH | not failed

— a protein production outcome set (Wang et al. 2014)
